Experimental findings from patent publication US20060228334A1 are described below.

This test deals with coxsackievirus-adenovirus receptor (CAR) on 293 cells (human) (UniProt P78310). Description: cell-based or functional assay.
UniProt P78310, sequence (P78310 20-365): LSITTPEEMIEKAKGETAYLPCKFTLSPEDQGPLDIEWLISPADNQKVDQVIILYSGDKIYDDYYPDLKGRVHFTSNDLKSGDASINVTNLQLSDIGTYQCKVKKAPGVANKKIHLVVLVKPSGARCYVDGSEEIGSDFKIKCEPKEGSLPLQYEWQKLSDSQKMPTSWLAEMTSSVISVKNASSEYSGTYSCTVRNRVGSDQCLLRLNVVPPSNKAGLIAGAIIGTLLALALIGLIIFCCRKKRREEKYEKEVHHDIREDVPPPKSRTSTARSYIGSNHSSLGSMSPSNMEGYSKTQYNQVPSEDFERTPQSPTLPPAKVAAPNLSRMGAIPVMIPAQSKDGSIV
“Ad5 fiber Thr404Gly (virus Ad-LacZ/Fb-Thr404gly) (from UniProt P11818 1-581)” came in with an IU/Particle (infectious units titrated on 293 cells per particle) of 8.33e-05 IU/Particle.
For the substance “Ad5 fiber Ser408Glu and Ser555Lys (virus Ad-LacZ/Fb-S408E/S555K) (from UniProt P11818 1-581)”, the IU/Particle (infectious units titrated on 293 cells per particle) was found to be 6.38e-05 IU/Particle.
On the same count and under the same terms, next, “Ad5 fiber Ser408Glu and Val452Lys (virus Ad-LacZ/Fb-S408E/V452K) (from UniProt P11818 1-581)”: 9.57e-05 IU/Particle.
As to “wild-type Ad5 fiber protein (as carried by the Ad-LacZ virus) (from UniProt P11818 1-581)”, the IU/Particle (infectious units titrated on 293 cells per particle) was determined as 0.025 IU/Particle and the inhibition of infection of 293 cells by 10 ug/ml recombinant Ad5 knob (FIG. 2) worked out at 90%.
In turn, “Ad5 fiber Val452Lys (virus Ad-LacZ/Fb-Val452Lys) (from UniProt P11818 1-581)” came in with an IU/Particle (infectious units titrated on 293 cells per particle) of 0.002 IU/Particle.
The same measure, in the same setting: next, “Ad5 fiber Ser408Glu (virus Ad-LacZ/Fb-S408E) (from UniProt P11818 1-581)”: 9.54e-05 IU/Particle; “Ad5 fiber Lys506Gln/His508Lys (virus Ad-LacZ/Fb-Lys506Q/His508Lys) (from UniProt P11818 1-581)”: 0.000769 IU/Particle.
With “Ad5 fiber Ser555Lys (virus Ad-LacZ/Fb-Ser555Lys) (from UniProt P11818 1-581)”, the IU/Particle (infectious units titrated on 293 cells per particle) is 0.025 IU/Particle.
Regarding “Ad5 fiber Ser408Glu and Lys506Gln/His508Lys (virus Ad-LacZ/Fb-S408E/K506Q/H508K) (from UniProt P11818 1-581)”, the IU/Particle (infectious units titrated on 293 cells per particle) is 0.00025 IU/Particle.
The same measure, in the same setting: the same measure for “Ad5 fiber Ala406Lys (virus Ad-LacZ/Fb-Ala406Lys) (from UniProt P11818 1-581)”: 0.000125 IU/Particle.
